Consider six molecules from patent publication US8691944B2, “Fibronectin polypeptides and methods of use” (The Research Foundation for the State University of New York, priority 2005, dated 2014).

Experiment [1] has as its target T1, PDGF-BB (Homo sapiens, UniProt P01127). Description: Equilibrium binding of PDGF-BB to FN, FN domains and peptides. The source says: (§1) This led us to speculate that PDGF was binding to the engineered ECM through the H or HV domain since vascular endothelial GF (VEGF), a member of the PDGF superfamily, had been reported to bind H and remain active while bound.
(§2) The survival of FN-null fibroblasts in the presence to PDGF-BB required substrate coated with intact FN or FNIII8-11+a PDGF-binding FN domain. […] To address this directly, we performed equilibrium binding assays with PDGF-BB to FN adsorbed to a surface or coupled to agarose beads. In addition, we also investigated the ability of other growth factors to bind intact FN.

For experiment [2], the target named is T1, PDGF-BB. The experiment is described as follows: Surface plasmon resonance kinetic binding of PDGF-BB to FN domains. The following applies: for Kd: kinetic binding. The source says:
VEGF, TGF-β1, PDGF-BB and FGF-2 bound IIICS with similar affinities (KD˜10^−7 M). […] The tested biological activities of GFs bound to a FN functional domain were retained or enhanced. […] In addition, our studies provide important information regarding the delivery of GFs and the sequestering of GFs, as appropriate, for therapeutic (e.g., surgical) or aesthetic indications, including wound healing treatments (where an aim is GF delivery) and cancer treatments (where an aim is GF sequestration). Where FN fragments are used to deliver GFs, they may be described as maintaining, activating, stabilizing or enhancing GF activity. […]
In general terms: Surface plasmon resonance follows binding to a sensor surface in real time, without labels.

The target of experiment [3] is T2, TGF-β1 (Homo sapiens, UniProt P01137). Description: Equilibrium binding of TGF-β1 to FN, FN domains and peptides. The method, then:
These peptides represent domains that follow the sequence pattern [QN]-X(1,2)-[ST]-X(0,1)-[IG]-[QS]-[KRQ]-[YTM]-[IG]-X(4,5)-X(0,1)-[KR]-X(1,2)-X(1,2)-[RT]-X(1,2)-[KQTS]-X(2)-T and that bind TGF-β1 with a certain affinity. […] We know of no other peptides in the human genome database that follow this pattern.
(§3) To determine whether FN domains bind TGF-β1 and bFGF, equilibrium and kinetic binding was performed.

Experiment [4] has as its target T2, TGF-β1. Description: Plasmon surface resonance kinetic binding of TGF-β1 to FN domains. The following applies: for Kd: plasmon (surface) resonance, kinetic binding.
Excerpt: (§4) VEGF, TGF-β1, PDGF-BB and FGF-2 bound IIICS with similar affinities (KD˜10^−7 M). […] The tested biological activities of GFs bound to a FN functional domain were retained or enhanced. […] In addition, our studies provide important information regarding the delivery of GFs and the sequestering of GFs, as appropriate, for therapeutic (e.g., surgical) or aesthetic indications, including wound healing treatments (where an aim is GF delivery) and cancer treatments (where an aim is GF sequestration). Where FN fragments are used to deliver GFs, they may be described as maintaining, activating, stabilizing or enhancing GF activity.
as §3

For experiment [5], the target named is bFGF (Homo sapiens, UniProt P09038). Description: Equilibrium binding of bFGF (FGF-2) to FN, FN domains and peptides. To be noted: method not specified (equilibrium and kinetic binding performed); read-out: KD, bFGF binding. Here is the method: as §2, §3
In experiment [6] the test system is mouse fibroblasts null for FN (FN−/−). Description: Survival of FN-null fibroblasts on FN domains with PDGF-BB. Format: cell-based. To be noted: for FN-null cell survival / proliferation with PDGF-BB: FNIII8-11 + the named domain, or named protein. The source says: To further investigate the response of cells to PDGF-BB bound to FN domains, we investigated the survival response of mouse fibroblasts null for FN (FN−/−). First we determined the response of FN-null cells to PDGF-BB in the absence of serum or other sources of exogenous FN. […] […] […] Importantly, differential response of FN-null cells, plated on different FN domains, to PDGF-BB was not secondary to differences in attachment as judged by cell counts two hours after plating. The FNIII8-11 central cell binding domain was present in all circumstances.

Experiment [7] addresses FGF-2 (Homo sapiens, UniProt P09038). The experiment is described as follows: Plasmon resonance binding of FGF-2 to FN domains.
Excerpt: as §4

The test system of experiment [8] is VEGF. The experiment is described as follows: Plasmon resonance binding of VEGF to FN domains.
Excerpt: as §4

Experiment [9] relates to GFs. The experiment is described as follows: Growth factor binding to FN domains (GFs in general).
Excerpt: as §1

Experiment [10] concerns fibroblast chemotaxis. The experiment is described as follows: Fibroblast chemotaxis to GFs in the presence or absence of FN domains. The class given is cell-based. To be noted: in solution. Here is the method: To determine whether FN functional domains modulated TGF-β1, bFGF or PDGF-BB activity in solution, fibroblast chemotaxis was performed in response to the GFs in the presence or absence of FN domains.

Experiment [11] addresses EGF (Homo sapiens, UniProt P01133). Description: Binding of EGF to FN, FN domains and peptides.
Excerpt: as §4, §2, §3

Where [12] appears, read: method not specified (equilibrium and kinetic binding performed).

T2 sequence (P01137 279-390 limits assumed, species assumed): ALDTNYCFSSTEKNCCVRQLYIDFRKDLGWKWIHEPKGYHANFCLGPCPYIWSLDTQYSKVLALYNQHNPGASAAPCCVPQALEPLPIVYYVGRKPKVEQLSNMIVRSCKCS
Chain of bFGF (P09038 143-288): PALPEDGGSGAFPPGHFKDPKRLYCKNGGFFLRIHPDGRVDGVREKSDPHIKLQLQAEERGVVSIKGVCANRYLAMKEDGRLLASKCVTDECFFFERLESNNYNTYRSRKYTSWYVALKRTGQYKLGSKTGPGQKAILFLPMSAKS
Chain of FGF-2 (P09038 143-288): as above
T1 sequence (P01127 82-190 limits assumed): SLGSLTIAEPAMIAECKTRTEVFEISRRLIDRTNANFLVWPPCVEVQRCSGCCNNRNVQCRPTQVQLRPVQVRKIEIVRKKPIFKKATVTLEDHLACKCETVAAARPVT
Chain of EGF (P01133 971-1023 limits assumed, species assumed): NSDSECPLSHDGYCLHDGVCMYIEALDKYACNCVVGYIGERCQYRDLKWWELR

B1: FNIII12-14: recombinant FN type III repeats 12-14, heparinII-binding domain (protein)
chain: MGSAIPAPTDLKFTQVTPTSLSAQWTPPNVQLTGYRVRVTPKEKTGPMKEINLAPDSSSVVVSGLMVATKYEVSVYALKDTLTSRPAQGVVTTLENVSPPRRARVTDATETTITISWRTKTETITGFQVDAVPANGQTPIQRTIKPDVRSYTITGLQPGTDYKIYLYTLNDNARSSPVVIDASTAIDAPSNLRFLATTPNSLLVSWQPPRARITGYIIKYEKPGSPPREVVPRPRPGVTEATITGLEPGTEYTIYVIALKNNQKSEPLIGRKKTTSHHHHHHC
By Kd is commonly meant a measure of binding affinity in units of concentration. As to B1, the dissociation constant Kd worked out at 35 nM in [1]; 55 nM in [2]; 7.6 nM in experiment [3] (setting [12]); 7.6 nM in [4]; 1.9 nM in [5]. Also, the “FN-null cell survival / proliferation with PDGF-BB” value in experiment [6] is “enhance survival”. Further, the “FN-null cell survival with PDGF” value in [6] (plastic precoated with 0.15 μM GST-tagged FNIII8-11 ± the named domain, or named protein, PDGF-BB added 1 day after plating, 3 days) is “increased survival”.

B2: FNIII1-7: FN type III repeats 1-7 (protein)
chain: GPVEVFITETPSQPNSHPIQWNAPQPSHISKYILRWRPKNSVGRWKEATIPGHLNSYTIKGLKPGVVYEGQLISIQQYGHQEVTRFDFTTTSTSTPVTSNTVTGETTPFSPLVATSESVTEITASSFVVSWVSASDTVSGFRVEYELSEEGDEPQYLDLPSTATSVNIPDLLPGRKYIVNVYQISEDGEQSLILSTSQTTAPDAPPDTTVDQVDDTSIVVRWSRPQAPITGYRIVYSPSVEGSSTELNLPETANSVTLSDLQPGVQYNITIYAVEENQESTPVVIQQETTGTPRSDTVPSPRDLQFVEVTDVKVTIMWTPPESAVTGYRVDVIPVNLPGEHGQRLPISRNTFAEVTGLSPGVTYYFKVFAVSHGRESKPLTAQQTTKLDAPTNLQFVNETDSTVLVRWTPPRAQITGYRLTVGLTRRGQPRQYNVGPSVSKYPLRNLQPASEYTVSLVAIKGNQESPKATGVFTTLQPGSSIPPYNTEVTETTIVITWTPAPRIGFKLGVRPSQGGEAPREVTSDSGSIVVSGLTPGVEYVYTIQVLRDGQERDAPIVNKVVTPLSPPTNLHLEANPDTGVLTVSWERSTTPDITGYRITTTPTNGQQGNSLEEVVHADQSSCTFDNLSPGLEYNVSVYTVKDDKESVPISDTIIP
As for B2, the Kd in [1] was found to be 75 nM; in experiment [2], 100 nM; in experiment [3] (equilibrium binding), 17 nM; in experiment [4] it was 18 nM; in experiment [5], 4.1 nM. The “PDGF-BB binding (in words)” value in experiment [2] is “all four GFs bound”. In addition, the “TGF-β1 binding (in words)” value in experiment [4] (plasmon resonance) is “all four GFs bound”. Besides, in experiment [7], the “FGF-2 binding (in words)” value was “all four GFs bound”. In addition, in experiment [8], the “VEGF binding (in words)” value was “all four GFs bound”.

B3: FNIII3-6: recombinant FN type III repeats 3-6 (protein)
chain: MGSAPDAPPDTTVDQVDDTSIVVRWSRPQAPITGYRIVYSPSVEGSSTELNLPETANSVTLSDLQPGVQYNITIYAVEENQESTPVVIQQETTGTPRSDTVPSPRDLQFVEVTDVKVTIMWTPPESAVTGYRVDVIPVNLPGEHGQRLPISRNTFAEVTGLSPGVTYYFKVFAVSHGRESKPLTAQQTTKLDAPTNLQFVNETDSTVLVRWTPPRAQITGYRLTVGLTRRGQPRQYNVGPSVSKYPLRNLQPASEYTVSLVAIKGNQESPKATGVFTTLQPGSSIPPYNTEVTETTIVITWTPAPRIGFKLGVRPSQGGEAPREVTSDSGSIVVSGLTPGVEYVYTIQVLRDGQERDAPIVNKVVTTSHHHHHHC
Consider B3, for which the “PDGF-BB binding (in words)” value was “did not” in experiment [1] and “no binding” in experiment [2]. In addition, the “binding of any GF (in words)” value in [9] is given as “In no case did any GF bind”. Further, the “support of FN-null fibroblast survival in the presence of PDGF-BB” value in experiment [6] (substrate coating, FNIII8-11 alone or + named domain) was “did not support cell survival”. The “enhancement of chemotactic activity of TGF-β1, bFGF and PDGF-BB” value in [10] was “did not enhance”.

B4: FNIII12-13: FN type III repeats 12-13 (protein)
chain: AIPAPTDLKFTQVTPTSLSAQWTPPNVQLTGYRVRVTPKEKTGPMKEINLAPDSSSVVVSGLMVATKYEVSVYALKDTLTSRPAQGVVTTLENVSPPRRARVTDATETTITISWRTKTETITGFQVDAVPANGQTPIQRTIKPDVRSYTITGLQPGTDYKIYLYTLNDNARSSPVVIDAST
With B4, the equilibrium dissociation constant (Kd) in experiment [1] turned out to be 75 nM.

B5: FNIII12-V15: composite heparinII-binding and variably-spliced IIICS domains (protein)
chain: MGSAIPAPTDLKFTQVTPTSLSAQWTPPNVQLTGYRVRVTPKEKTGPMKEINLAPDSSSVVVSGLMVATKYEVSVYALKDTLTSRPAQGVVTTLENVSPPRRARVTDATETTITISWRTKTETITGFQVDAVPANGQTPIQRTIKPDVRSYTITGLQPGTDYKIYLYTLNDNARSSPVVIDASTAIDAPSNLRFLATTPNSLLVSWQPPRARITGYIIKYEKPGSPPREVVPRPRPGVTEATITGLEPGTEYTIYVIALKNNQKSEPLIGRKKTDELPQLVTLPHPNLHGPEILDVPSTVQKTPFVTHPGYDTGNGIQLPGTSGQQPSVGQQMIFEEHGFRRTTPPTTATPIRHRPRPYPPNVGEEIQIGHIPREDVDYHLYPHGPGLNPNASTGQEALSQTTISWAPFQDTSEYIISCHPVGTDEEPLQFRVPGTSTSATLTGLTRGATYNVIVEALKDQQRHKVREEVVTVGNSVNEGTSHHHHHHC
In the case of B5, the Kd in [1] came out at 21 nM; in [2] it was 17 nM; in [3] (equilibrium binding) it was 97 nM; in [5] it was 37 nM; in [7], 37 nM; in experiment [8], 0.6 nM. In addition, the “EGF binding (in words)” value in experiment [11] was “all GFs, except EGF, bound”. Further, the “GF binding on addition of salt or acid” value in experiment [9] (up to 2.5 M NaCl added or pH lowered to about 2.0) was “failed to demonstrate any diminution”. Moreover, the “FN-null cell survival / proliferation with PDGF-BB” value in experiment [6] is recorded as “enhance survival”. The “chemotactic activity when assayed alone” value in experiment [10] is on record as “no chemotactic activity”. Further, the “enhancement of chemotactic activity of TGF-β1, bFGF and PDGF-BB” value in experiment [10] is given as “enhanced the chemotactic activity”.

B6: FNIII12-15: heparin II binding domain of FN (protein)
chain: MGSTIPAPTDLKFTQVTPTSLSAQWTPPNVQLTGYRVRVTPKEKTGPMKEINLAPDSSSVVVSGLMVATKYEVSVYALKDTLTSRPAQGVVTTLENVSPPRRARVTDATETTITISWRTKTETITGFQVDAVPANGQTPIQRTIKPDVRSYTITGLQPGTDYKIYLYTLNDNARSSPVVIDASTAIDAPSNLRFLATTPNSLLVSWQPPRARITGYIIKYEKPGSPPREVVPRPRPGVTEATITGLEPGTEYTIYVIALKNNQKSEPLIGRKKTGQEALSQTTISWAPFQDTSEYIISCHPVGTDEEPLQFRVPGTSTSATLTGLTRGATYNVIVEALKDQQRHKVREEVVTVGNSVNEGTSHHHHHHC
In the case of B6, the Kd came to 6.8 nM in [1]; 68 nM in experiment [2]; 16 nM in experiment [3] (setting [12]); 16 nM in experiment [4]; 130 nM in experiment [5]; 170 nM in experiment [7].
